Source: patent US20160340429A1 (KADMON, published 2016)
Positions count from the first letter of the chain named. Each block holds one binder with its values, some of them ahead of it.

Experiments:
[1] = target: T1, human PD-L1 on cells (PDLI-293 / HEK-293 cells expressing PD-L1, MDA-MB-231 cells, activated CD4 cells, … (human, UniProt Q9NZQ7 19-290)); assay: binding to MDA-MB-231 cells, FIG. 19
T1 construct: whole, on cells

soluble human PDL1 = target: T2, soluble human PDL1 (human, UniProt Q9NZQ7 19-239, limits assumed); assay: binding assay of FIG. 17
T2 construct: May be the same protein as the human PDL1-Fc; also called soluble PDL1

soluble mouse PDL1 = target: T3, soluble mouse PDL1 (mouse, UniProt Q9EP73 19-238, limits assumed); assay: binding assay of FIG. 17
T3 construct: May be the same protein as the murine PDL1-Fc

human PDL2 = target: T4, human PDL2 (human, UniProt Q9BQ51 20-219, limits assumed); assay: binding assay of FIG. 17
T4 sequence (looked up): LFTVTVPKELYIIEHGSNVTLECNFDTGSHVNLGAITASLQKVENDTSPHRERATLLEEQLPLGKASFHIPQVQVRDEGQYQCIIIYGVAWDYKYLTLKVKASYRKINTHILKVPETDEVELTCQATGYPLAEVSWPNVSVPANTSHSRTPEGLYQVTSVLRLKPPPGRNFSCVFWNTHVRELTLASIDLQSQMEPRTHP

T2 sequence (Q9NZQ7 19-239 limits assumed): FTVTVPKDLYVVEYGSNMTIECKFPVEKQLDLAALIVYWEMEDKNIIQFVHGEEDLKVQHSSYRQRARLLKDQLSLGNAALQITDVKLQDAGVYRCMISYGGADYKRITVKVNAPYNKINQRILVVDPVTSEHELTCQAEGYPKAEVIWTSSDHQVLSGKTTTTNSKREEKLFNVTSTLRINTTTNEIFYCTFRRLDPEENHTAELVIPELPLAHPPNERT
T3 sequence (Q9EP73 19-238 limits assumed): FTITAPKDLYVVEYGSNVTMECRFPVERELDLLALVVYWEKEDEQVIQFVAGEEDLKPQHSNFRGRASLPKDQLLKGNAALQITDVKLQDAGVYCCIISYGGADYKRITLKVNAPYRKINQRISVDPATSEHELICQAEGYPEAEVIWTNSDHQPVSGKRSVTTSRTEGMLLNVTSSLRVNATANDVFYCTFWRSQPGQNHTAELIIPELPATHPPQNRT
T1 sequence (Q9NZQ7 19-290): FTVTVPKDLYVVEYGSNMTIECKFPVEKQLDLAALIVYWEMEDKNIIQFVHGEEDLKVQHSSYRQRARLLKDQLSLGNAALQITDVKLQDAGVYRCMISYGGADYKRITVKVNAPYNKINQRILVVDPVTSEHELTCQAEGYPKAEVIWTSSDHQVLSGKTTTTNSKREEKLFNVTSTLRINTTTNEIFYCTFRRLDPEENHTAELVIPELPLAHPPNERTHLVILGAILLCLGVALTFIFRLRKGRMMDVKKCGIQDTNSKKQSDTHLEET

binding result [1]: binds
binding result (soluble human PDL1): binds
binding result (soluble mouse PDL1): binds
binding result (human PDL2): no binding
B1: tccD7_#114 (antibody, V domains shown)
VH: EVQLLESGGGLVQPGGSLRLSCAASGFTFSSYLMVWVRQAPGKGLEWVSSIYPSGGITFYADSVKGRFTISRDNSKNTLYLQMNSLRAEDTAIYYCARIKLGTVTTVDYWGQGTLVTVSS
VL: QSALTQPASVSGSPGQSITISCTGTSSDVGAYNYVSWYQQHPGKAPKLMIYDVSNRPSGVSNRFSGSKSGNTASLTISGLQAEDEADYYCSSYTSSSTRVFGTGTKVTVLG
notes: converted to IgG and to an IgG with two Leu-Ala substitutions

binding result [1]: binds
binding result (soluble human PDL1): binds
binding result (soluble mouse PDL1): binds
binding result (human PDL2): no binding
B2: tccD7_#102 (antibody, V domains shown)
VH: B1 VH with S31A, L33R, V35F
VL: B1 VL
notes: converted to IgG and to an IgG with two Leu-Ala substitutions; also called tccD7_#2; cD7_#2
